Measurements reported in PMC6032326, “Connexin43 Carboxyl-Terminal Domain Directly Interacts with β-Catenin” (International Journal of Molecular Sciences, 2018).
Values joined by “and” are separate entries in the source; they are usually repeats but may differ in a detail not shown here. Equal values may be shown once.

Legend:
Cx43CT Y313D = target: T1, Cx43CT Y313D (rat, UniProt P08050 236-382, Y313D, 15N-labelled); assay: NMR titration; 15N-HSQC at 7 °C; 15N-labelled Cx43CT (WT, Y313D or Y265,313D) at constant 35 μM, unlabelled β-catenin, β-catenin CT or β-catenin ΔCT added up to 285 μM; 1x PBS pH 7.8, 2 mM dithiothreitol; KD from the fit of the decrease in signal intensity; conditions: both partners purified
T1 construct: Connexin43 (Cx43), rat, carboxyl-terminal domain, residues V236-I382, with the phosphomimetic Y313D; The mutation was put into 'the Cx43CT plasmid'; also called single phosphomimetic; source: bacterial expression vector pGEX-6P-2, expressed and purified in 1x PBS as previously described

[1] = target: T2, Connexin43 carboxyl-terminal domain (V236–I382) (rat, UniProt P08050 236-382, 15N-labelled); assay: as above; conditions: both partners purified
T2 construct: Connexin43 (Cx43), rat, carboxyl-terminal domain, residues V236-I382; pGEX-6P-2 carries a PreScission site, so GST was probably cleaved (surmise); also called Cx43CT; Cx43CT WT; source: bacterial expression vector pGEX-6P-2, expressed and purified in 1x PBS as previously described

Kd (Cx43CT Y313D): 341 µM | Kd [1]: 210 µM and 202 µM
B1: β-catenin carboxyl-terminal (CT) domain (S681–L781) (domain or fragment, human, UniProt P35222 681-781, looked up)
chain: SLFRTEPMAWNETADLGLDIGAQGEPLGYRQDDPSYRSFHSGGYGQDALGMDPMMEHEMGGHHPGADYPVDGLPDLGHAQDLMDGLPPGDSNQLAWFDTDL
notes: β-catenin, human, C-terminal domain, residues S681-L781; also called β-catenin CT; β-catenin CT domain
